Experimental data taken from paper PMC3499301 (mAbs, 2012).
One block for each binder: values may come before it.

Legend:
[1] = molecular target: the molecule itself
soluble human Tie2-Fc = soluble human Tie2-Fc (human, UniProt Q02763); assay: ELISA
soluble human Tie2-Fc, sequence (Q02763 23-748): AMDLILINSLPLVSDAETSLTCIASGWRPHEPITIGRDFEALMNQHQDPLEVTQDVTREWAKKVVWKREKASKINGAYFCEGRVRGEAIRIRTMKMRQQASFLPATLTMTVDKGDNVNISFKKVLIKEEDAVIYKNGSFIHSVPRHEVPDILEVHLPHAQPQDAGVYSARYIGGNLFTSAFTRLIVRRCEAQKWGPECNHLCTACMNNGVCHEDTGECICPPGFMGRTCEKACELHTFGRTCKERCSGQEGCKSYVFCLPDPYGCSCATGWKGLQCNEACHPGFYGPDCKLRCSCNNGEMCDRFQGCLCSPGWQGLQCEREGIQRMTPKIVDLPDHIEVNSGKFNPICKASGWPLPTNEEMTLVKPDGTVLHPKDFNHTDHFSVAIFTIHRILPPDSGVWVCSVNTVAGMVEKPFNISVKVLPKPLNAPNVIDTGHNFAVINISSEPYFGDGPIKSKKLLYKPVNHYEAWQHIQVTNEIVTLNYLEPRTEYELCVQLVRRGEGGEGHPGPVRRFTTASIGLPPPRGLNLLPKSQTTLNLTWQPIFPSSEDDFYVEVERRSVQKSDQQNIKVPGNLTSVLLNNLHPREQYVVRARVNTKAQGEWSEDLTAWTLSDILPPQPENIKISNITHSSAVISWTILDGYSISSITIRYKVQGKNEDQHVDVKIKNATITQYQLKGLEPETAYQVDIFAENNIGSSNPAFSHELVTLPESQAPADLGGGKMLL

B1: His-tagged Ang2 prepared in-house (Zyngenia) (ligand)
chain: YNNFRKSMDSIGKKQYQVQHGSCSYTFLLPEMDNCRSSSSPYVSNAVQRDAPLEYDDSVQRLQVLENIMENNTQWLMKLENYIQDNMKKEMVEIQQNAVQNQTAVMIEIGTNLLNQTAEQTRKLTDVEAQVLNQTTRLELQLLEHSLSTNKLEKQILDQTSEINKLQDKNSFLEKKVLAMEDKHIIQLQSIKEEKDQLQVLVSKQNSIIEELEKKIVTATVNNSVLQKQQHDLMETVNNLLTMMSTSNSAKDPTVAKEEQISFRDCAEVFKSGHTTNGIYTLTFPNSTEEIKAYCDMEAGGGGWTIIQRREDGSVDFQRTWKEYKVGFGNPSGEYWLGNEFVSQLTNQQRYVLKIHLKDWEGNEAYSLYEHFYLSSEELNYRIHLKGLTGTAGKISSISQPGNDFSTKDGDNDKCICKCSQMLTGGWWFDACGPSNLNGMYYPQRQNTNKFNGIKWYYWKGSGYSLKATTMMIRPADF
stoichiometry N [1]: 2

binding result (soluble human Tie2-Fc): binds
B2: Recombinant human Ang2 (R&D Systems) (ligand)
chain: B1 chain
